Source: patent US6905846

Legend:
[1] = molecular target: recombinant factor X (rFX), expressed in CHO cells from human factor X cDNA (human) (UniProt P00742); assay: cell-based or functional assay
[2] = molecular target: T1, recombinant FX deletion mutant having the furin cleavage site Arg-Val-Thr-Arg/Ile (rFXΔ^RVTR/I)
T1 chain: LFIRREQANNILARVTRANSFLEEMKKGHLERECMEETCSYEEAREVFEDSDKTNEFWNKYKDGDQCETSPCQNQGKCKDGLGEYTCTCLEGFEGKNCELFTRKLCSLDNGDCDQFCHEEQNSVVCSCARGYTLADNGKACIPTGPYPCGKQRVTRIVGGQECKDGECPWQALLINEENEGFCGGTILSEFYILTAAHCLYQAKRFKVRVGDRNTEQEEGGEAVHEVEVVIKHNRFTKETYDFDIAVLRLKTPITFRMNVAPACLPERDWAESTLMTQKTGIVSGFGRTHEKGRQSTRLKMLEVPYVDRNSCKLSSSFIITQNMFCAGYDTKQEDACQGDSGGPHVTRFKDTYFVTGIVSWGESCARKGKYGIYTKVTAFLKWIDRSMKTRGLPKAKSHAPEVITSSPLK

Molecule	functional portion of rFX (%), incubation 0 days [1]	functional portion of rFX (%), incubation 1 day [1]	functional portion of rFX (%), incubation 2 days [1]	functional portion of rFX (%), incubation 3 days [1]	functional portion of rFX (%), incubation 4 days [1]	processing/activation of rFXΔ^RVTR/I (Western blot; 6, 24, 48, 72 hours at 37° C.) [2]
rfurin ÿTM6xHis (r-furin derivative, as CHO cell culture supernatant; patent application EP 0 775 750) (from UniProt P09958 108-707) (enzyme)	61%	73%	79%	81%	86%	–
r-furinÿCys-spacer-10xHis (purified r-furin derivative; patent application EP-0 775 750-A2) (protein) DVYQEPTDPKFPQQWYLSGVTQRDLNVKAAWAQGYTGHGIVVSILDDGIEKNHPDLAGNYDPGASFDVNDQDPDPQPRYTQMNDNRHGTRCAGEVAAVANNGVCGVGVAYNARIGGVRMLDGEVTDAVEARSLGLNPNHIHIYSASWGPEDDGKTVDGPARLAEEAFFRGVSQGRGGLGSIFVWASGNGGREHDSCNCDGYTNSIYTLSISSATQFGNVPWYSEACSSTLATTYSSGNQNEKQIVTTDLRQKCTESHTGTSASAPLAAGIIALTLEANKNLTWRDMQHLVVQTSKPAHLNANDWATNGVGRKVSHSYGYGLLDAGAMVALAQNWTTVAPQRKCIIDILTEPKDIGKRLEVRKTVTACLGEPNHITRLEHAQARLTLSYNRRGDLAIHLVSPMGTRSTLLAARPHDYSADGFNDWAFMTTHSWDEDPSGEWVLEIENTSEANNYGTLTKFTLVLYGTAPEG	–	–	–	–	–	In the presence of the r-furin derivative (FIG. 10A), a 35 kD protein band appears already after 6 hours of incubation (lane 5), which corresponds to the form of the FX heavy chain
